Measurements: patent US20190135872A1

Tests used:
[1] = target: 16055 NFL-TD+CC2-D4K_I559P (HIV-1 16055 (clade C)); assay: BLI, IgG captured, trimer as analyte
[2] = target: 16055 NFL-Q563P (HIV-1 16055 (clade C)); assay: BLI, IgG captured, trimer as analyte
[3] = target: BG505 NFL-TD+CC2-D4K_L555P (HIV-1 BG505 (clade A)); assay: BLI, IgG captured, trimer as analyte
[4] = target: BG505 NFL-S553P (HIV-1 BG505 (clade A)); assay: BLI, IgG captured, trimer as analyte
[5] = target: 16055 NFL-L555P (HIV-1 16055 (clade C)); assay: BLI, IgG captured, trimer as analyte
[6] = target: 16055 NFL-Q562P (HIV-1 16055 (clade C)); assay: BLI, IgG captured, trimer as analyte
[7] = target: BG505 NFL-Q562P (HIV-1 BG505 (clade A)); assay: BLI, IgG captured, trimer as analyte
[8] = target: BG505 NFL-TD+CC2-D4K_I559P (HIV-1 BG505 (clade A)); assay: BLI, IgG captured, trimer as analyte
[9] = target: 16055 NFL-TD+CC2-D4K_L555P (HIV-1 16055 (clade C)); assay: BLI, IgG captured, trimer as analyte
[10] = target: BG505 NFL-N554P (HIV-1 BG505 (clade A)); assay: BLI, IgG captured, trimer as analyte
[11] = target: BG505 NFL-L555P (HIV-1 BG505 (clade A)); assay: BLI, IgG captured, trimer as analyte
[12] = target: 16055 NFL (I559P) parental (HIV-1 16055 (clade C)); assay: BLI, IgG captured, trimer as analyte
[13] = target: 16055 NFL-CC2 (HIV-1 16055 (clade C)); assay: BLI, IgG captured, trimer as analyte
[14] = target: BG505 NFL-CC2 (HIV-1 BG505 (clade A)); assay: BLI, IgG captured, trimer as analyte
[15] = target: BG505 NFL-Q563P (HIV-1 BG505 (clade A)); assay: BLI, IgG captured, trimer as analyte
[16] = target: BG505 NFL (I559P) parental (HIV-1 BG505 (clade A)); assay: BLI, IgG captured, trimer as analyte
[17] = target: 16055 NFL-TD+CC2-D4K_I559P (HIV-1 16055 (clade C)); assay: ELISA, His-captured trimer
[18] = target: 16055 NFL-Q563P (HIV-1 16055 (clade C)); assay: ELISA, His-captured trimer
[19] = target: BG505 NFL-TD+CC2-D4K_I559P w/rEK (HIV-1 BG505 (clade A)); assay: ELISA, His-captured trimer
[20] = target: BG505 NFL-TD+CC2-D4K_L555P (HIV-1 BG505 (clade A)); assay: ELISA, His-captured trimer
[21] = target: BG505 NFL-TD+CC2-D4K_L555P w/rEK (HIV-1 BG505 (clade A)); assay: ELISA, His-captured trimer
[22] = target: JRFL NFL-CC2 (HIV-1 JRFL (clade B)); assay: ELISA, His-captured trimer
[23] = target: 16055 NFL-TD+CC2-D4K_L555P w/rEK (HIV-1 16055 (clade C)); assay: ELISA, His-captured trimer
[24] = target: 16055 NFL-L555P (HIV-1 16055 (clade C)); assay: ELISA, His-captured trimer
[25] = target: BG505 NFL-TD+CC2-D4K_I559P (HIV-1 BG505 (clade A)); assay: ELISA, His-captured trimer
[26] = target: 16055 NFL-TD+CC2-D4K_L555P (HIV-1 16055 (clade C)); assay: ELISA, His-captured trimer
[27] = target: 16055 NFL-TD+CC2-D4K_I559P w/rEK (HIV-1 16055 (clade C)); assay: ELISA, His-captured trimer
[28] = target: BG505 NFL-L555P (HIV-1 BG505 (clade A)); assay: ELISA, His-captured trimer
[29] = target: 16055 NFL-CC2 (HIV-1 16055 (clade C)); assay: ELISA, His-captured trimer
[30] = target: BG505 NFL-CC2 (HIV-1 BG505 (clade A)); assay: ELISA, His-captured trimer
[31] = target: BG505 NFL (I559P) parental (HIV-1 BG505 (clade A)); assay: ELISA, His-captured trimer
[32] = target: 16055 NFL (I559P) parental (HIV-1 16055 (clade C)); assay: ELISA, His-captured trimer

## PGT145 (antibody)
[1]
  Kd: 25 nM
  koff: 0.0056 s⁻¹
  kon: 220000 M⁻¹ s⁻¹
[2]
  Kd: 1.6 nM
  koff: 0.0005 s⁻¹
  kon: 320000 M⁻¹ s⁻¹
[3]
  Kd: 19 nM
  koff: 0.0031 s⁻¹
  kon: 170000 M⁻¹ s⁻¹
[4]
  Kd: 5 nM
[5]
  Kd: 3.3 nM
  koff: 0.001 s⁻¹
  kon: 310000 M⁻¹ s⁻¹
[6]
  Kd: 2.9 nM
  koff: 0.0009 s⁻¹
  kon: 300000 M⁻¹ s⁻¹
[7]
  Kd: 6.2 nM
[8]
  Kd: 16 nM
  koff: 0.0027 s⁻¹
  kon: 170000 M⁻¹ s⁻¹
[9]
  Kd: 16 nM
  koff: 0.0035 s⁻¹
  kon: 220000 M⁻¹ s⁻¹
[10]
  Kd: 4.3 nM
[11]
  Kd: 2.9 nM
[12]
  Kd: 1.9 nM
[13]
  Kd: 16 nM
  koff: 0.004 s⁻¹
  kon: 240000 M⁻¹ s⁻¹
[14]
  Kd: 21 nM
  koff: 0.0034 s⁻¹
  kon: 160000 M⁻¹ s⁻¹
[15]
  Kd: 3.6 nM
[16]
  Kd: 6.2 nM
[17]
  EC50: 0.015 µg/mL
[18]
  EC50: 0.013 µg/mL
[19]
  EC50: 0.016 µg/mL
[20]
  EC50: 0.014 µg/mL
[21]
  EC50: 0.015 µg/mL
[22]
  EC50: 0.012 µg/mL
[23]
  EC50: 0.015 µg/mL
[24]
  EC50: 0.014 µg/mL
[25]
  EC50: 0.013 µg/mL
[26]
  EC50: 0.014 µg/mL
[27]
  EC50: 0.019 µg/mL
[28]
  EC50: 0.018 µg/mL
[29]
  EC50: 0.013 µg/mL
[30]
  EC50: 0.011 µg/mL
[31]
  EC50: 0.016 µg/mL

## PGT151 (antibody)
[1]
  Kd: 8.7 nM
  koff: 0.0069 s⁻¹
  kon: 790000 M⁻¹ s⁻¹
[2]
  Kd: 8.9 nM
  koff: 0.0016 s⁻¹
  kon: 180000 M⁻¹ s⁻¹
[3]
  Kd: 3.7 nM
  koff: 0.0014 s⁻¹
  kon: 370000 M⁻¹ s⁻¹
[4]
  Kd: 3.3 nM
[5]
  Kd: 5.7 nM
  koff: 0.0008 s⁻¹
  kon: 150000 M⁻¹ s⁻¹
[6]
  Kd: 9.2 nM
  koff: 0.0016 s⁻¹
  kon: 180000 M⁻¹ s⁻¹
[7]
  Kd: 1.9 nM
[8]
  Kd: 2.3 nM
  koff: 0.0008 s⁻¹
  kon: 340000 M⁻¹ s⁻¹
[9]
  Kd: 13 nM
  koff: 0.0055 s⁻¹
  kon: 45000 M⁻¹ s⁻¹
[10]
  Kd: 1.4 nM
[11]
  Kd: 1.4 nM
[13]
  Kd: 21 nM
  koff: 0.0053 s⁻¹
  kon: 250000 M⁻¹ s⁻¹
[14]
  Kd: 1.9 nM
  koff: 0.0006 s⁻¹
  kon: 290000 M⁻¹ s⁻¹
[15]
  Kd: 1.7 nM
[16]
  Kd: 5.5 nM
[18]
  EC50: 0.047 µg/mL
[19]
  EC50: 0.091 µg/mL
[20]
  EC50: 0.073 µg/mL
[21]
  EC50: 0.085 µg/mL
[22]
  EC50: 0.139 µg/mL
[23]
  EC50: 0.056 µg/mL
[24]
  EC50: 0.048 µg/mL
[25]
  EC50: 0.065 µg/mL
[27]
  EC50: 0.041 µg/mL
[28]
  EC50: 0.058 µg/mL
[30]
  EC50: 0.059 µg/mL
[31]
  EC50: 0.062 µg/mL

## VRC01 (antibody)
[17]
  EC50: 0.059 µg/mL
[18]
  EC50: 0.294 µg/mL
[19]
  EC50: 0.066 µg/mL
[20]
  EC50: 0.051 µg/mL
[21]
  EC50: 0.069 µg/mL
[22]
  EC50: 0.032 µg/mL
[23]
  EC50: 0.178 µg/mL
[24]
  EC50: 0.178 µg/mL
[25]
  EC50: 0.042 µg/mL
[26]
  EC50: 0.067 µg/mL
[27]
  EC50: 0.208 µg/mL
[28]
  EC50: 0.07 µg/mL
[32]
  EC50: 0.055 µg/mL
[29]
  EC50: 0.021 µg/mL
[30]
  EC50: 0.059 µg/mL
[31]
  EC50: 0.05 µg/mL

## VRC34 (antibody)
[1]
  Kd: 92 nM
  koff: 0.0038 s⁻¹
  kon: 41000 M⁻¹ s⁻¹
[3]
  Kd: 44 nM
  koff: 0.002 s⁻¹
  kon: 44000 M⁻¹ s⁻¹
[8]
  Kd: 12 nM
  koff: 0.0005 s⁻¹
  kon: 43000 M⁻¹ s⁻¹
[9]
  Kd: 75 nM
  koff: 0.0038 s⁻¹
  kon: 50000 M⁻¹ s⁻¹
[13]
  Kd: 63 nM
  koff: 0.0027 s⁻¹
  kon: 43000 M⁻¹ s⁻¹
[14]
  Kd: 1.3 nM
  koff: 4e-05 s⁻¹
  kon: 27000 M⁻¹ s⁻¹
[19]
  EC50: 0.037 µg/mL
[20]
  EC50: 2.43 µg/mL
[21]
  EC50: 0.035 µg/mL
[22]
  EC50: 1.01 µg/mL
[23]
  EC50: 0.032 µg/mL
[25]
  EC50: 0.072 µg/mL
[27]
  EC50: 0.034 µg/mL
[28]
  EC50: 0.017 µg/mL
[32]
  EC50: 0.692 µg/mL
[29]
  EC50: 0.434 µg/mL
[30]
  EC50: 0.457 µg/mL
[31]
  EC50: 0.464 µg/mL
